T1: Dnp-GPVNFRVC(Me)-NH2
T1 chain: GPVNFRVX

B1: collagenase 1 (protein)
chain: FVLTEGNPRWEQTHLTYRIENYTPDLPRADVDHAIEKAFQLWSNVTPLTFTKVSEGQADIMISFVRGDHRDNSPFDGPGGNLAHAFQPGPGIGGDAHFDEDERWTNNFREYNLHRVAAHELGHSLGLSHSTDIGALMYPSYTFSGDVQLAQDDIDGIQAIYGRSQNPVQPIGPQTPKACDSKLTFDAITTIRGEVMFFKDRFYMRTNPFYPEVELNFISVFWPQLPNGLEAAYEFADRDEVRFFKGNKYWAVQGQNVLHGYPKDIYSSFGFPRTVKHIDAALSEENTGKTYFFVANKYWRYDEYKRSMDPGYPKMIAHDFPGIGHKVDAVFMKDGFFYFFHGTRQYKFDPKTKRILTLQKANSWFNCRKN
B2: human Gelatinase-A (protein)
chain: YNFFPRKPKWDKNQITYRIIGYTPDLDPETVDDAFARAFQVWSDVTPLRFSRIHDGEADIMINFGRWEHGDGYPFDGKDGLLAHAFAPGTGVGGDSHFDDDELWTLGEGQVVRVKYGNADGEYCKFPFLFNGKEYNSCTDTGRSDGFLWCSTTYNFEKDGKYGFCPHEALFTMGGNAEGQPCKFPFRFQGTSYDSCTTEGRTDGYRWCGTTEDYDRDKKYGFCPETAMSTVGGNSEGAPCVFPFTFLGNKYESCTSAGRSDGKMWCATTANYDDDRKWGFCPDQGYSLFLVAAHEFGHAMGLEHSQDPGALMAPIYTYTKNFRLSQDDIKGIQELYGASPDIDLGTGPTPTLGPVTPEICKQDIVFDGIAQIRGEIFFFKDRFIWRTVTPRDKPMGPLLVATFWPELPEKIDAVYEAPQEEKAVFFAGNEYWIYSASTLERGYPKPLTSLGLPPDVQRVDAAFNWSKNKKTYIFAGDKFWRYNEVKKKMDPGFPKLIADAWNAIPDNLDAVVDLQGGGHSYFFKGAYYLKLENQSLKSVKFGSIKSDWLGC

How the values were obtained:
Dnp-GPVNFRVC(Me)-NH2 = biological target: T1, Dnp-GPVNFRVC(Me)-NH2

type IV collagen, P08572, sequence (P08572 26-1712, chain 1 of 2): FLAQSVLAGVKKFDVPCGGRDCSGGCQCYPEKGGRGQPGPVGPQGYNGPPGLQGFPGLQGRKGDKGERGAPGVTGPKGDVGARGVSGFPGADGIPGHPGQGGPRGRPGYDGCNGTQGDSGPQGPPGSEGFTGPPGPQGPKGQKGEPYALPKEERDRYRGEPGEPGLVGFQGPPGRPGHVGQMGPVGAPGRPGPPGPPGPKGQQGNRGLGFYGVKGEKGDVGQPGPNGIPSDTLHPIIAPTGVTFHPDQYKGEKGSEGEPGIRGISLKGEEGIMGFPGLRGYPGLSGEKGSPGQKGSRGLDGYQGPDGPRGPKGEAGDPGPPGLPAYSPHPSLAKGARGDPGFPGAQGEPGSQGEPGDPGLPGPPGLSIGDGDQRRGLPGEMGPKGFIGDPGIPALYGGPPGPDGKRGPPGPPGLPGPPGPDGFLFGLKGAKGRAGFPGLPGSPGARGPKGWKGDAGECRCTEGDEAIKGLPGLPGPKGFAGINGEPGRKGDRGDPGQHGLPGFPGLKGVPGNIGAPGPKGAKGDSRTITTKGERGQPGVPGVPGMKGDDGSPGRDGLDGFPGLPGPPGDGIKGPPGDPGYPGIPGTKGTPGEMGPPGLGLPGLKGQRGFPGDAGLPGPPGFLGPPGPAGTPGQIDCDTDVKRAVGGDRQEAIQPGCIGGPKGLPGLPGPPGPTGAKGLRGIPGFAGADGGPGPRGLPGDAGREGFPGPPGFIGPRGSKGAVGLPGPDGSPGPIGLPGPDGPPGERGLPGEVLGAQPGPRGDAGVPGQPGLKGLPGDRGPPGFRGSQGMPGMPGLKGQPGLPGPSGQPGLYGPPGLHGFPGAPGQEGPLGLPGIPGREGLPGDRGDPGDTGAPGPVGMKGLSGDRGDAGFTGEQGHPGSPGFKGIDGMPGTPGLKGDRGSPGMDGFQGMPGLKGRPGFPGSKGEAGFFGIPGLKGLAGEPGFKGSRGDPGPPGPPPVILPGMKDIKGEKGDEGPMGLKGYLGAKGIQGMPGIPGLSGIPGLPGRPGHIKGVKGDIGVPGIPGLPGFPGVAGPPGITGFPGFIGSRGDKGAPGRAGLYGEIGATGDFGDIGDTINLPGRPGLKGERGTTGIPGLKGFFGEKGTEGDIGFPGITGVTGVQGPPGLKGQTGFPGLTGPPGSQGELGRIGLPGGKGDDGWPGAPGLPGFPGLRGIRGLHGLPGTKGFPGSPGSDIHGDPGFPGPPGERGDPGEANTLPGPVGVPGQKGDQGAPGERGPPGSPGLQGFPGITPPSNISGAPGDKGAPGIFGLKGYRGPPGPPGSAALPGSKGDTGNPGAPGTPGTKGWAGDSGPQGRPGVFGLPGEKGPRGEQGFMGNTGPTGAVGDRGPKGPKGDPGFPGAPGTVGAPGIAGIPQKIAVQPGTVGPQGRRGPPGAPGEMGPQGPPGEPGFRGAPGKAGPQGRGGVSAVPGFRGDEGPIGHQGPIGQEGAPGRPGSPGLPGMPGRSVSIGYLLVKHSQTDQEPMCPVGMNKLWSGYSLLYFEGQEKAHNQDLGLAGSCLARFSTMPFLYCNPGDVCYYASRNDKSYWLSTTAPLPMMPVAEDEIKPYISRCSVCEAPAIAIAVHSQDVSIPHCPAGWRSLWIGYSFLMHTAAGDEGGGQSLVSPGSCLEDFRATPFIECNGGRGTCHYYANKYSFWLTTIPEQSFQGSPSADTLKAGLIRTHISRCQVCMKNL
type IV collagen, P08572, sequence (chain, as listed by the source, chain 2 of 2): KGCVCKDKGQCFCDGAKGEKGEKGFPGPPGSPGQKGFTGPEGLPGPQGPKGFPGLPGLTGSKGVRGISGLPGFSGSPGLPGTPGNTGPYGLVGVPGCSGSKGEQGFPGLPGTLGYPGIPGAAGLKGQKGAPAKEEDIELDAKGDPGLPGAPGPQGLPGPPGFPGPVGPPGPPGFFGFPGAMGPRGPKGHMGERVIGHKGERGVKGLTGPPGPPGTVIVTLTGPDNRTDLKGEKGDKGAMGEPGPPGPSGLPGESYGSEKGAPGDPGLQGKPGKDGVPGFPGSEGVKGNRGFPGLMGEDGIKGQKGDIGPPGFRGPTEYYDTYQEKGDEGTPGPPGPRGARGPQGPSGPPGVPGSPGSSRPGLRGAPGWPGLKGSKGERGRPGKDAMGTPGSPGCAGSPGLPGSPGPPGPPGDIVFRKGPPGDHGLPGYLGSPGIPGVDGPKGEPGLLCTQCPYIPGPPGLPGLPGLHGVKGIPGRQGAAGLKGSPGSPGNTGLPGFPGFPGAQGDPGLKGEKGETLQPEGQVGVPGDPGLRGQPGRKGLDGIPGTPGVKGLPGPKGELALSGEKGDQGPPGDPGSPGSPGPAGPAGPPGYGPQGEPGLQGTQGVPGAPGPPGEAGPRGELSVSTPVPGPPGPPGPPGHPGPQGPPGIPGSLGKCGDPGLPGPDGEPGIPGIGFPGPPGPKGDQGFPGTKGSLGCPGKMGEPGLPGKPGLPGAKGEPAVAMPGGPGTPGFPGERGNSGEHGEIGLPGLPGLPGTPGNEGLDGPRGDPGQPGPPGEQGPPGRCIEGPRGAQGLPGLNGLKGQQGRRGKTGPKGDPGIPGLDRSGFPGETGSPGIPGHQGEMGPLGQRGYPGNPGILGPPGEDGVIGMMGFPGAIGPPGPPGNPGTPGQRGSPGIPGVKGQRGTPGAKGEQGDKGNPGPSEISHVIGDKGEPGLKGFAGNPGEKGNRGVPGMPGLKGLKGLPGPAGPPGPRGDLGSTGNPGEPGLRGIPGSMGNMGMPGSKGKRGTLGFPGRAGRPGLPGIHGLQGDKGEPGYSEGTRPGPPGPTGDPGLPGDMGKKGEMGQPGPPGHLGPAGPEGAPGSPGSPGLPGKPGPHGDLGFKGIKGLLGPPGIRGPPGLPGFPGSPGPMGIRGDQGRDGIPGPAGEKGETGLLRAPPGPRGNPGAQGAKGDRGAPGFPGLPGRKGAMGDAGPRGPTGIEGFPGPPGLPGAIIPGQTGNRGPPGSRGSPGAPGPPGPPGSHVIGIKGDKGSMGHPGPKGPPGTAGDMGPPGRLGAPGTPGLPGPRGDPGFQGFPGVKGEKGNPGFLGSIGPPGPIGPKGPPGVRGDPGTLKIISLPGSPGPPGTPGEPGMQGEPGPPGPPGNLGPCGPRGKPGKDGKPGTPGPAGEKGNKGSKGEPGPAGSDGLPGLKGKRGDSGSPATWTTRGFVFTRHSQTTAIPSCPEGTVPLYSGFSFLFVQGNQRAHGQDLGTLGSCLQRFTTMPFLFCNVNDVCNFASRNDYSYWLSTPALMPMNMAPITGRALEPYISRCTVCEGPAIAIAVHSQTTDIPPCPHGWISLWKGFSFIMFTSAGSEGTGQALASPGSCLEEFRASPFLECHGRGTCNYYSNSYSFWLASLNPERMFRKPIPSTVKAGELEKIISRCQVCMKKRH

Protein | cleavage seen on a gel (type IV collagen, P08572) | Selectivity v. Coll-3, substrate 5 uM (Dnp-GPVNFRVC(Me)-NH2)
B1 | Both collagenase 1 and gelatinase B processed type IV collagen under the conditions used in our experiments | –
B2 | No detectable cleavage was observed by gelatinase A in an earlier experiment | 88 unitless

— patent US20030229005
